Drawing on publication PMC9629889, this text covers Kd for one molecule.

Common to all, as to test: MST; Monolith NT.115; TaMTB labelled with the protein labelling kit RED in PBS, ligand (NIb) in a concentration gradient; Kd-Fit; three repeats
Assay [1] has as its target TaMTB(SNP176^A) protein purified from E. coli (Triticum aestivum).
The target of assay [2] is TaMTB-His (from E. coli) (Triticum aestivum (cv. Yangmai158 cDNA)).
The target in assay [3] is TaMTB(SNP176^C) protein purified from E. coli (Triticum aestivum).

B1: NIb protein purified from E. coli (natural protein)
chain: ASDILSKINNSILGFGSDLKGQLVQPITPALRTRFEALFGGGSFELVGTMNKGLIDKHTIVGENDNVHDFMREHPTFAWLQGFMDEYAPSVLNYTAYYKDLCKYNRKKHQLSFNPHELRSATAGMIRMLEDAGLTQGDVRTPQQVVSDMQWNTSAGPSYQGKKRDVCAHLSEQEVLHLAETSRQQFLACNSIGIWNGSLKAELRTIEKVEAEKTRVFTASPITSLFAMKFYVDDFNKKFYATNLKAPHTVGINKFSRGWEMLHDKLNRPGWLHGSGDGSRFDSSIDPFFFDIIKEIRKHFLPVEHHRAIDLIYDEILNTNICLANGMVIRKNVGNNSGQPSTVVDNTLVLMVSFLYAYIHKTGDHMLKKLNDRFVFVCNGDDNKFAISPEFDAEFGHDFSPELTELGLTYEFDDITDDICANPYMSLTMVRTPFGIGFSLPVERIVAIMQWAKKGGVLHSYLAGISAIYESFNTPKLFKSVYAYLLWLTEEHGSDILAAMTGTATALPIPSMLDVYRLHYGDSSIELQ
modifications: not checked
A word on the Kd: it is a measure of binding affinity in units of concentration. Lower therefore signals higher affinity. B1: the Kd in assay [1] came out at 730 nM; in assay [2] it was 1120 nM; in assay [3], 110 nM.
